Experimental data published in patent US20260201030A1, “ANTIBODY, ANTIBODY-DRUG CONJUGATE THEREOF AND USE THEREOF” (EVOPOINT BIOSCIENCES CO., LTD., priority 2021, published 2026).

How the values were obtained:
[1] = biological target: T1, human Claudin18.2 (Homo sapiens, UniProt P56856); assay: Cell-based ELISA affinity on NUGC4 cells endogenously expressing human Claudin18.2; assay type: binding; conditions: for NUCG4 Maximum signal value: OD450
T1 construct: expressed in transfected cells

[2] = test system: cynomolgus monkey Claudin18.2; assay: FACS species affinity on HEK293T-Claudin18.2 (cynomolgus monkey) cells; assay type: binding; conditions: cell-based FACS
Protocol: The affinity of the anti-human Claudin18.2 humanized monoclonal antibodies for Claudin18.2 of different species was determined by flow cytometry (FACS). The experimental procedures were as follows: HEK293T-Claudin18.2 (cynomolgus monkey) cells, HEK293T-Claudin18.2 (mouse) cells and HEK293T-Claudin18.2 (rat) cells were digested, collected by centrifugation, washed three times with pre-cooled PBS, resuspended in 1% BSA (in PBS), and added to a 96-well pointed bottom plate at 3×10^5 cells/well. Each antibody subjected to gradient dilution was added, and the mixture was incubated at 4° C. for 1 h. The cells were washed three times with pre-cooled PBS, and then 1 μL of a fluorescent secondary antibody (APC: Biolegend-410712) was added to each well. The mixture was incubated at 4° C. for 0.5 h, and the cells were washed three times with pre-cooled PBS, then resuspended, and assayed on a flow cytometer.

[3] = biological target: T1, human Claudin18.2; assay: Cell-based ELISA affinity of humanized antibodies on HEK293T-Claudin18.2 (human) cells; assay type: binding; conditions: HEK293T-Claudin18.2 cells
Protocol: The affinity of the anti-human Claudin18.2 murine monoclonal antibodies was evaluated by cell-based ELISA. The experimental procedures were as follows: The day before the experiment, HEK293T-Claudin18.2 (human) cells were plated in a 96-well plate at 5×10^4 cells/well. On the day of the experiment, the supernatant was removed, the cells in each well were washed once with 300 μL of PBS, and 100 μL of 4% paraformaldehyde was added to each well for fixation at room temperature for 20 min. Paraformaldehyde was then removed, and the cells in each well were washed twice with 300 μL of PBS. 100 μL of 2% BSA (in PBS) was added to each well, and the mixture was blocked at 37° C. for 2 h. After removing the blocking solution, each antibody subjected to gradient dilution (diluted with 2% BSA (in PBS), starting at […], in a 3-fold gradient, for a total of 11 concentration points) was added to the plate at 100 μL/well, and the mixture was incubated at 37° C. for 2 h. The supernatant was removed, and the cells in each well were washed three times with 300 μL of PBST. 100 μL of an anti-mouse IgG HRP secondary antibody (Jackson, cat #115-035-003) in 2% BSA was added to each well, and the mixture was incubated at 37° C. for 1 h. The secondary antibody was then removed, and the cells in each well were washed five times with 300 μL of PBST, followed by the addition of 100 μL of a TMB substrate (Huzhou InnoReagents Co., Ltd.) per well for color development for 5-20 min. The reaction was stopped by adding 50 μL of 2 N HCl to each well, and OD450 nm values were read on a microplate reader (manufacturer: MD, model: SpectraMax). The values obtained were plotted by GraphPad Prism to calculate the EC50 value.
The affinity of the anti-human Claudin18.2 humanized monoclonal antibodies was determined by cell-based ELISA. The cell-based ELISA was conducted as described in Example I-3.

[4] = biological target: T2, human Claudin18.1 (Homo sapiens, UniProt P56856); assay: FACS specificity of humanized antibodies on HEK293T-Claudin18.1 (human) cells; assay type: binding; conditions: antibody 50 μg/mL, PE secondary antibody
T2 construct: expressed in transfected cells
Protocol: The specificity of the anti-human Claudin18.2 humanized monoclonal antibodies was determined by flow cytometry (FACS). The experimental procedures were as follows: HEK293T-Claudin18.1 (human) cells were digested, collected by centrifugation, washed three times with pre-cooled PBS, resuspended in 1% BSA (in PBS), and added to a 96-well pointed bottom plate at 3×10^5 cells/well. Each test antibody with a final concentration of 50 μg/mL was added, and the mixture was incubated at 4° C. for 1 h. The cells were washed three times with pre-cooled PBS, and then 1 μL of a fluorescent secondary antibody (APC: Biolegend-410712 or PE: BioLegend-410708) was added to each well. The mixture was incubated at 4° C. for 0.5 h, and the cells were washed three times with pre-cooled PBS, then resuspended, and assayed on a flow cytometer. For reference, anti-human Claudin18.1 positive control antibodies (positive control antibody-1 and positive control antibody-2) were included in the experiment.

[5] = test system: HEK293T-Claudin18.2 (human) cells; assay: ADCC activity, fluorescein reporter system (Jurkat-NFAT-CD16a); assay type: cell-based; conditions: HEK293T-Claudin18.2 (human) target cells, 5 h
Protocol: ADCC activity of the anti-human Claudin18.2 humanized monoclonal antibodies was detected by a fluorescein reporter system. The experiment was carried out using a Rhinogen® Bio-Glory One-Step Firefly Luciferase Assay kit (Suzhou Rhino Bio, RA-GL04), following the manufacturer's instructions. The experimental procedures were as follows: HEK293T-Claudin18.2 (human) cells were digested, collected by centrifugation, resuspended in DMEM+1% FBS, and then plated at 50000 cells/well. Jurkat-NFAT-CD16a cells were collected by centrifugation and resuspended in 1640+1% FBS, and then plated at 100000 cells/well. Each test antibody subjected to gradient dilution was added, and the mixture was incubated at 37° C. for 5 h. 50 μL of a Bio-Glory One-Step luciferase substrate was added to each well, and readings were taken on a microplate reader (MD, SpectraMax i3x).

[6] = biological target: T1, human Claudin18.2; assay: Cell ELISA affinity before and after conjugation, L929-claudin 18.2 (human) cells; assay type: binding; conditions: FIG. 8A
Protocol: The cell binding affinity of the antibody before and after conjugation to the toxin was detected according to a method similar to that described in Example 2.2. L929-claudin 18.2 (human) or NUGC4 cells were digested with trypsin, collected by centrifugation, washed three times with pre-cooled PBS, resuspended, added to a 96-well plate at 5×10^4 cells/well, and incubated overnight. The cells were fixed with 4% paraformaldehyde and blocked with 2% BSA (in PBS) at 37° C. for 2 h. Each ADC drug or antibody subjected to gradient dilution was added, and the mixture was incubated at 37° C. for 2 h. […] A TMB substrate was added for color development, and after the reaction was stopped by 2 M HCl, OD450 nm values were read on a microplate reader.

B1: 25C7A5-HZ1: humanized anti-Claudin18.2 antibody, VH SEQ ID NO: 1, VL SEQ ID NO: 2, human IgG1/Kappa constant regions (antibody, V domains shown)
VH: QVQLVQSGAEVKKPGSSVKVSCKASGYTFTNYWLHWVRQAPGQGLEWMGMMHPISGSSNYAQKFQGRATLTVDKSTSTAYMELSSLRSEDTAVYYCARGLLSAMDYWGQGTLVTVSS
VL: EIVLTQSPATLSLSPGERATLSCKASENVKTYVSWYQQKPGQSPRLLIYEASNRYTGVPARFSGSGSATDFTLTISSLEPEDFAVYFCGQTYSFPPTFGQGTKVEIK
modifications: human IgG1/kappa constant regions
NUCG4 EC50 [1]: 0.1012 µg/mL | NUCG4 Maximum signal value [1]: 0.304 | HEK293T-Claudin18.2 (cynomolgus monkey) EC50 [2]: 0.2398 µg/mL | Affinity detected by cell-based ELISA (EC50, ng/mL) HEK293T-Claudin18.2 [3]: 11.15 ng/mL | Mean PE fluorescence signal value [4]: 583 | Median PE fluorescence signal value [4]: 504 | Positive rate (%) [4]: 0.54% | ADCC activity EC50 [5]: 0.04649 µg/mL | change in affinity for the cells before and after conjugation [6]: no significant changes in the affinity

B2: 25C7A5-HZ2: humanized anti-Claudin18.2 antibody, VH SEQ ID NO: 3, VL SEQ ID NO: 2, human IgG1/Kappa constant regions (antibody, V domains shown)
VH: QVQLVESGAEVKKPGSSVKVSCKASGYTFTNYWLHWVRQAPGQGLEWMGMMHPISGSSNYAQKFQGRATLTVDKSTSTAYMELSSLRSEDTAVYYCARGLLSAMDYWGQGTLVTVSS
VL: EIVLTQSPATLSLSPGERATLSCKASENVKTYVSWYQQKPGQSPRLLIYEASNRYTGVPARFSGSGSATDFTLTISSLEPEDFAVYFCGQTYSFPPTFGQGTKVEIK
modifications: human IgG1/kappa constant regions
NUCG4 EC50 [1]: 0.1225 µg/mL | NUCG4 Maximum signal value [1]: 0.313 | HEK293T-Claudin18.2 (cynomolgus monkey) EC50 [2]: 0.2133 µg/mL | Affinity detected by cell-based ELISA (EC50, ng/mL) HEK293T-Claudin18.2 [3]: 11.17 ± 2.19(N = 2) ng/mL | Mean PE fluorescence signal value [4]: 559 | Median PE fluorescence signal value [4]: 471 | Positive rate (%) [4]: 0.55% | ADCC activity EC50 [5]: 0.04875 µg/mL | change in affinity for the cells before and after conjugation [6]: no significant changes in the affinity
